Our source for the stoichiometry N values is doi:10.64898/2025.12.16.694761.

In the assay the target is Nitrous oxide reductase NosZ (clade I) of Trinickia sp. Z7 (Trinickia sp. Z7). In words: cryo-EM structure.

Turning to “Nitrous oxide reductase NosZ (clade I) of Trinickia sp. Z7 (enzyme)”, the stoichiometry N (commonly the number of molecules, sites or subunits per partner or assembly) stood at 2.
